Experimental data from US20030092613A1, “Alpha7 nicotinic receptor peptides as ligands for beta amyloid peptides” (priority 2000, published 2003).

Target: β-amyloid1-42 (UniProt P05067)
Experiment: cell-based or functional assay

With cyclic peptide (Ac)ECCK-amide the ACh rel % Inh @ 100 µM was 87%.
